T1: His6-Hof1-C (amino acids 341–669) (S. cerevisiae, UniProt Q05080 341-669)
T1 sequence (looked up): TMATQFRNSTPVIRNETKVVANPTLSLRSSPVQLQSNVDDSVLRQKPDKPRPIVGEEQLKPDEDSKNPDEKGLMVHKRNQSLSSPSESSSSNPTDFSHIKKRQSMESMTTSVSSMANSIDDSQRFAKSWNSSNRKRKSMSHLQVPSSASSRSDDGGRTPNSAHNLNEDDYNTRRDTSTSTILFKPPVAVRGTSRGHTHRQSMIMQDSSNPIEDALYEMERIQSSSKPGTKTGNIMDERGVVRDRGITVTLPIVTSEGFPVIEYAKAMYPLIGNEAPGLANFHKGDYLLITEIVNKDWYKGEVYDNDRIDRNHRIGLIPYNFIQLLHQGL

B1: His6-tagged Cyk3 SH3 domain fragment (amino acids 1–70) (domain or fragment, S. cerevisiae, UniProt Q07533 1-70, looked up)
chain: MATNLTSLKPPFKVKARYGWSGQTKGDLGFLEGDIMEVTRIAGSWFYGKLLRNKKCSGYFPHNFVILLEE
B2: GST-Inn1-tail (amino acids 131–409), wild type (domain or fragment, S. cerevisiae, UniProt P53901 131-409, looked up)
chain: LTFTPKVPRLNRDDLNKEMDRLDSSMAMRPIPPLPTESEYDYVHGSTMRQITPQCVSTSHEDKDEGQPYRNGNVFSMSSKSDTAVLANSNDPIILPPTFSASMGTTSTLETNDTAISNTSNTKFHFANLRKLKEKINIFKNPDSSTNNCQNESNKVDIEALQKAIGVTSLSYDEDDDDDDENDAFYSSSHRVSHNYNQPPLPPIPTRDDMSNYSSSRNTPLVRRDRPSRLDSSSPNSHPHPSGLNSPKLPPLPTTSNSNFNSRKNSMSPTRKRPPPRLS

Tests used:
[1] = target: B2; experiment: pull-down
[2] = target: T1, His6-Hof1-C (amino acids 341–669); experiment: pull-down

B1: binds [1].

B2: binds [2].
